Experimental data published in IntAct's records for PubMed 33368531.

Target: T1, ofd1_human OFD1 (UniProt O75665)
T1 sequence: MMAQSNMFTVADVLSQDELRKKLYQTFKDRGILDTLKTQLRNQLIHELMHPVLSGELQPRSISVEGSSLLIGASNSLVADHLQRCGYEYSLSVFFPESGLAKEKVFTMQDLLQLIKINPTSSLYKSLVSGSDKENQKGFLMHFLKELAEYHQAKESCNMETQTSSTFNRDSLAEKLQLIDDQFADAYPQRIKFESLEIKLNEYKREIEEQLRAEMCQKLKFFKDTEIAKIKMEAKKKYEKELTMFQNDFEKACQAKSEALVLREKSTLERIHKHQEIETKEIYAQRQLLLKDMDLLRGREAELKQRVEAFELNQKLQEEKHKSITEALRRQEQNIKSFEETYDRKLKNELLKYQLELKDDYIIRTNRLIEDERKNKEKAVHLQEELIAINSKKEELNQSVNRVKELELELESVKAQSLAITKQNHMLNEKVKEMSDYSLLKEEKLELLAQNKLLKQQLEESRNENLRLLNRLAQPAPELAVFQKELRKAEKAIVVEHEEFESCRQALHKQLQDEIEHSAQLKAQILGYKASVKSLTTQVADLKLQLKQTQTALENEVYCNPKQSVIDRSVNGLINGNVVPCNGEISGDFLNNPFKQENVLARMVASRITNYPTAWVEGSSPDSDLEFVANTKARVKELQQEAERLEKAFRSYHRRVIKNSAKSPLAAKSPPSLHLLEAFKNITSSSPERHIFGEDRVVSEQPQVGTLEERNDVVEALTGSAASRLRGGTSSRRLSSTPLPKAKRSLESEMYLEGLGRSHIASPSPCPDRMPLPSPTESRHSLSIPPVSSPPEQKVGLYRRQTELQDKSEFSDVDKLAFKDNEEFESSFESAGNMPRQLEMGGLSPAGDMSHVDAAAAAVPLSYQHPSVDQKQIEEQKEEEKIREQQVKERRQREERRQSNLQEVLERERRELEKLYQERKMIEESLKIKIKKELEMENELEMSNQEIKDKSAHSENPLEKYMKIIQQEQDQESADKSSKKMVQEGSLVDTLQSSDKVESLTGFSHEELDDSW

## Microtubule-associated protein 1 light chain 3 beta (Homo sapiens) (from UniProt Q9GZQ8) F52A;L53A
  effect of a mutation on the interaction: disrupting interaction
